{"source": "paper PMC10786891", "about": "“Massively parallel profiling of RNA-targeting CRISPR-Cas13d”", "binders": {"B1": {"name": "target 1 MT 5'PFS GGA 3'PFS AUG (mixed)", "RNA 1": "CACCCGUGCAAAAAUGCAGGGGUCUAAAACUGAGCGGAUAACCUCUCUAUGG", "RNA 2": "GGGAAUGGAUCCACAUCUACGAAUUCGGACCAUAGAGAGGUUAUCCGCUCAAUGAGAUCGGAAGAGCACACGU"}, "B2": {"name": "target 1 MT 5'PFS CAC 3'PFS UUU (mixed)", "RNA 1": "B1 RNA 1", "RNA 2": "B1 RNA 2 with G27C, G28A, A29C, A52U, G54U"}, "B3": {"name": "target 1 insA 3' of 11,insC 3' of 8 (mixed)", "RNA 1": "B1 RNA 1", "RNA 2": "GGGAAUGGAUCCACAUCUACGAAUUCGUACCAUAGAGAGGUAUAUCCCGCUCACCGAGAUCGGAAGAGCACACGU"}, "B4": {"name": "target 1 MT 5'PFS GCA 3'PFS CUG (mixed)", "RNA 1": "B1 RNA 1", "RNA 2": "B1 RNA 2 with G28C, A52C"}, "B5": {"name": "target 1 MT 5'PFS GCA 3'PFS CUC (mixed)", "RNA 1": "B1 RNA 1", "RNA 2": "B1 RNA 2 with G28C, A52C, G54C"}, "B6": {"name": "target 1 MT 5'PFS GGC 3'PFS AGC (mixed)", "RNA 1": "B1 RNA 1", "RNA 2": "B1 RNA 2 with A29C, U53G, G54C"}, "B7": {"name": "target 1 MT 5'PFS UGC 3'PFS AUA (mixed)", "RNA 1": "B1 RNA 1", "RNA 2": "B1 RNA 2 with G27U, A29C, G54A"}, "B8": {"name": "target 1 MT 5'PFS UGC 3'PFS AUC (mixed)", "RNA 1": "B1 RNA 1", "RNA 2": "B1 RNA 2 with G27U, A29C, G54C"}, "B9": {"name": "target 1 MT 5'PFS UGC 3'PFS AUG (mixed)", "RNA 1": "B1 RNA 1", "RNA 2": "B1 RNA 2 with G27U, A29C"}, "B10": {"name": "target 1 MT 5'PFS CCC 3'PFS AUG (mixed)", "RNA 1": "B1 RNA 1", "RNA 2": "B1 RNA 2 with G27C, G28C, A29C"}, "B11": {"name": "target 1 MT 5'PFS UGC 3'PFS AUU (mixed)", "RNA 1": "B1 RNA 1", "RNA 2": "B1 RNA 2 with G27U, A29C, G54U"}, "B12": {"name": "target 1 MT 5'PFS CCC 3'PFS AUU (mixed)", "RNA 1": "B1 RNA 1", "RNA 2": "B1 RNA 2 with G27C, G28C, A29C, G54U"}, "B13": {"name": "target 1 MT 5'PFS CAA 3'PFS ACC (mixed)", "RNA 1": "B1 RNA 1", "RNA 2": "B1 RNA 2 with G27C, G28A, U53C, G54C"}, "B14": {"name": "target 1 U8C,U19C (mixed)", "RNA 1": "B1 RNA 1", "RNA 2": "B1 RNA 2 with G28U, U33C, U44C, A52C, U53C"}, "B15": {"name": "target 1 MT 5'PFS CCU 3'PFS CAA (mixed)", "RNA 1": "B1 RNA 1", "RNA 2": "B1 RNA 2 with G27C, G28C, A29U, A52C, U53A, G54A"}, "B16": {"name": "target 1 MT 5'PFS CCU 3'PFS CAC (mixed)", "RNA 1": "B1 RNA 1", "RNA 2": "B1 RNA 2 with G27C, G28C, A29U, A52C, U53A, G54C"}, "B17": {"name": "target 1 MT 5'PFS AUG 3'PFS AUU (mixed)", "RNA 1": "B1 RNA 1", "RNA 2": "B1 RNA 2 with G27A, G28U, A29G, G54U"}, "B18": {"name": "target 1 MT 5'PFS CCU 3'PFS CAG (mixed)", "RNA 1": "B1 RNA 1", "RNA 2": "B1 RNA 2 with G27C, G28C, A29U, A52C, U53A"}, "B19": {"name": "target 1 MT 5'PFS ACG 3'PFS AUC (mixed)", "RNA 1": "B1 RNA 1", "RNA 2": "B1 RNA 2 with G27A, G28C, A29G, G54C"}, "B20": {"name": "target 1 MT 5'PFS ACG 3'PFS AUA (mixed)", "RNA 1": "B1 RNA 1", "RNA 2": "B1 RNA 2 with G27A, G28C, A29G, G54A"}, "B21": {"name": "target 1 MT 5'PFS ACG 3'PFS AUG (mixed)", "RNA 1": "B1 RNA 1", "RNA 2": "B1 RNA 2 with G27A, G28C, A29G"}, "B22": {"name": "target 1 MT 5'PFS GAG 3'PFS UCU (mixed)", "RNA 1": "B1 RNA 1", "RNA 2": "B1 RNA 2 with G28A, A29G, A52U, U53C, G54U"}, "B23": {"name": "target 1 MT 5'PFS CUG 3'PFS AGG (mixed)", "RNA 1": "B1 RNA 1", "RNA 2": "B1 RNA 2 with G27C, G28U, A29G, U53G"}, "B24": {"name": "target 1 MT 5'PFS CCU 3'PFS CAU (mixed)", "RNA 1": "B1 RNA 1", "RNA 2": "B1 RNA 2 with G27C, G28C, A29U, A52C, U53A, G54U"}, "B25": {"name": "target 1 insC 3' of 12,insC 3' of 12 (mixed)", "RNA 1": "B1 RNA 1", "RNA 2": "B3 RNA 2 with U41C, A42C, A44U, U45A, C46U"}, "B26": {"name": "target 1 MT 5'PFS AUG 3'PFS AUG (mixed)", "RNA 1": "B1 RNA 1", "RNA 2": "B1 RNA 2 with G27A, G28U, A29G"}, "B27": {"name": "target 1 MT 5'PFS GAG 3'PFS UCC (mixed)", "RNA 1": "B1 RNA 1", "RNA 2": "B1 RNA 2 with G28A, A29G, A52U, U53C, G54C"}, "B28": {"name": "target 1 MT 5'PFS GAG 3'PFS UCA (mixed)", "RNA 1": "B1 RNA 1", "RNA 2": "B1 RNA 2 with G28A, A29G, A52U, U53C, G54A"}, "B29": {"name": "target 1 MT 5'PFS GAG 3'PFS UCG (mixed)", "RNA 1": "B1 RNA 1", "RNA 2": "B1 RNA 2 with G28A, A29G, A52U, U53C"}, "B30": {"name": "target 2 MT 5'PFS CGG 3'PFS CAC (mixed)", "RNA 1": "CACCCGUGCAAAAUUGCAGGGGUCUAAAACCUUCUCCAAAUUGUUUCAUCCU", "RNA 2": "GGGAAUGGAUCCACAUCUACGAAUUCCGGAGGAUGAAACAAUUUGGAGAAGCACAGAUCGGAAGAGCACACGU"}, "B31": {"name": "target 2 MT 5'PFS CGG 3'PFS CAA (mixed)", "RNA 1": "B30 RNA 1", "RNA 2": "B30 RNA 2 with C54A"}, "B32": {"name": "target 2 MT 5'PFS AGG 3'PFS AUC (mixed)", "RNA 1": "B30 RNA 1", "RNA 2": "B30 RNA 2 with C27A, C52A, A53U"}, "B33": {"name": "target 2 MT 5'PFS CGG 3'PFS CAG (mixed)", "RNA 1": "B30 RNA 1", "RNA 2": "B30 RNA 2 with C54G"}, "B34": {"name": "target 2 MT 5'PFS UGA 3'PFS AUA (mixed)", "RNA 1": "B30 RNA 1", "RNA 2": "B30 RNA 2 with C27U, G29A, C52A, A53U, C54A"}, "B35": {"name": "target 2 MT 5'PFS UGA 3'PFS AUC (mixed)", "RNA 1": "B30 RNA 1", "RNA 2": "B30 RNA 2 with C27U, G29A, C52A, A53U"}, "B36": {"name": "target 1 insC 3' of 12,insG 3' of 4 (mixed)", "RNA 1": "B1 RNA 1", "RNA 2": "B3 RNA 2 with U41C, A42U, C48G, G49C, C50G"}, "B37": {"name": "target 2 MT 5'PFS CGG 3'PFS CAU (mixed)", "RNA 1": "B30 RNA 1", "RNA 2": "B30 RNA 2 with C54U"}, "B38": {"name": "target 2 MT 5'PFS UGA 3'PFS AUU (mixed)", "RNA 1": "B30 RNA 1", "RNA 2": "B30 RNA 2 with C27U, G29A, C52A, A53U, C54U"}}, "note": "Numbering of substitutions follows the chain as printed. Numbers in names are those of the source."}
{"target": "T1, EsCas13d, nuclease-dead (Eubacterium siraeum, UniProt B0MS50, R295A;H300A;R849A;H854A)", "T1 sequence": "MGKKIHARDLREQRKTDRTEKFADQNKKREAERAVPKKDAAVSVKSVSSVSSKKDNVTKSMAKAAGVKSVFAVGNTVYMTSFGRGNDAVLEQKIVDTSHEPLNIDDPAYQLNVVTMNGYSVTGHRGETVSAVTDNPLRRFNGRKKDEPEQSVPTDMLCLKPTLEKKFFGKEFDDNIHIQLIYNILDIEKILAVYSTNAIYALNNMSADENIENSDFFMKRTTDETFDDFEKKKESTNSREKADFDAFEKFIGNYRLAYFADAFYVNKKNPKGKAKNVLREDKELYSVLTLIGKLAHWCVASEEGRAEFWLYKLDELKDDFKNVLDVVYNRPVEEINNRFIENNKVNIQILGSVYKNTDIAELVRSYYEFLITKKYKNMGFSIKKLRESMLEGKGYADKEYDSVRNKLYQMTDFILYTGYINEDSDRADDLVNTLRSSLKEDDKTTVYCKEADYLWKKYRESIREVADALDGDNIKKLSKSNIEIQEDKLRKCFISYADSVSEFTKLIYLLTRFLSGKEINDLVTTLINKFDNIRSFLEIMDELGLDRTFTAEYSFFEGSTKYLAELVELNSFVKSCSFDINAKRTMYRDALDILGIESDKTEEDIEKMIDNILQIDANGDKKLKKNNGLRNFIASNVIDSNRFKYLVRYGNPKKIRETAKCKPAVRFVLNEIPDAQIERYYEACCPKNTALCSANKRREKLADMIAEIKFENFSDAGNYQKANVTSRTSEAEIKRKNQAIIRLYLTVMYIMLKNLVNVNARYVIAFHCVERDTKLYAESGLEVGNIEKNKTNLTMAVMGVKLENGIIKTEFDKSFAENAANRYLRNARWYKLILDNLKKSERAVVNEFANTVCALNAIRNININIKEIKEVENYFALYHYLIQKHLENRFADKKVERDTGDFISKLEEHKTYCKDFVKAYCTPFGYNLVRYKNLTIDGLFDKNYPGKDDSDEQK", "assay": "crRNA (strand 1, pre-loaded); Mg2+; 40 mM Tris-HCl pH 7.5, 150 mM NaCl, 6 mM MgCl2, 1 mM DTT, 0.1% Tween-20, 0.2 mg/ml BSA; 25 C; 10 min per concentration, then washed", "conditions": "tags: His6-TwinStrep-SUMO cleaved; N-terminal SNAP kept (SNAP-Surface 488); label: 3' end held by stalled T7 RNA polymerase", "units": {"Kd": "nM"}}
{"binder": "B1", "Kd": "34.5 ± 6.5"}
{"binder": "B2", "Kd": "7.15 ± 2.4"}
{"binder": "B3", "Kd": "16.7 ± 1.1"}
{"binder": "B4", "Kd": "11.9 ± 3.35"}
{"binder": "B5", "Kd": "~19.5"}
{"binder": "B6", "Kd": "9.95 ± 1.75"}
{"binder": "B7", "Kd": "16.5 ± 6"}
{"binder": "B8", "Kd": "52.5 ± 23"}
{"binder": "B9", "Kd": "~55.5"}
{"binder": "B10", "Kd": "31 ± 14"}
{"binder": "B11", "Kd": "18.6 ± 5.1"}
{"binder": "B12", "Kd": "~8"}
{"binder": "B13", "Kd": "14.8 ± 5.05"}
{"binder": "B14", "Kd": "41.1 ± 2.3"}
{"binder": "B15", "Kd": "55 ± 19"}
{"binder": "B16", "Kd": "15.2 ± 5.15"}
{"binder": "B17", "Kd": "11.4 ± 2.5"}
{"binder": "B18", "Kd": "~26"}
{"binder": "B19", "Kd": "~24.5"}
{"binder": "B20", "Kd": "16.5 ± 6.5"}
{"binder": "B21", "Kd": "45 ± 18.5"}
{"binder": "B22", "Kd": "29 ± 9"}
{"binder": "B23", "Kd": "66.5 ± 33"}
{"binder": "B24", "Kd": "13.5 ± 5.5"}
{"binder": "B25", "Kd": "18.3 ± 1.3"}
{"binder": "B26", "Kd": "49 ± 18"}
{"binder": "B27", "Kd": "55.5 ± 26.5"}
{"binder": "B28", "Kd": "~47.5"}
{"binder": "B29", "Kd": "42 ± 16"}
{"binder": "B30", "Kd": "6.8 ± 1.3"}
{"binder": "B31", "Kd": "3.4 ± 0.5"}
{"binder": "B32", "Kd": "5.5 ± 0.6"}
{"binder": "B33", "Kd": "4.3 ± 0.6"}
{"binder": "B34", "Kd": "7.1 ± 1.4"}
{"binder": "B35", "Kd": "8.7 ± 1.1"}
{"binder": "B36", "Kd": "5.7 ± 0.5"}
{"binder": "B37", "Kd": "4.4 ± 0.5"}
{"binder": "B38", "Kd": "7.5 ± 1.3"}
